Results on 5 variants are retold here after FireProtDB (doi:10.1016/0022-2836(82)90184-x).

Sequences and labels used below:
B1: Tryptophan synthase alpha chain, P0A877 (parent)
chain: MERYESLFAQLKERKEGAFVPFVTLGDPGIEQSLKIIDTLIEAGADALELGIPFSDPLADGPTIQNATLRAFAAGVTPAQCFEMLALIRQKHPTIPIGLLMYANLVFNKGIDEFYAQCEKVGVDSVLVADVPVEESAPFRQAALRHNVAPIFICPPNADDDLLRQIASYGRGYTYLLSRAGVTGAENRAALPLNHLVAKLKEYNAAPPLQGFGISAPDQVKAAIDAGAAGAISGSAIVKIIEQHINEPEKMLAALKVFVQPMKAATRS

The variants in the series derive from B1. Particulars: Escherichia coli (strain K12), 25 °C, GdnHCl, CD, reversible: yes, structure 1WQ5, whole UniProt chain shown.
Where [1] appears, read: pH 7, Potassium phosphate 0.01 M.

On to MERYESLFAQLKERKEGAFVPFVTLGDPGIEQSLKIIDTLIEAGADALVLGIPFSDPLADGPTIQNATLRAFAAGVTPAQCFEMLALIRQKHPTIPIGLLMYANLVFNKGIDEFYAQCEKVGVDSVLVADVPVEESAPFRQAALRHNVAPIFICPPNADDDLLRQIASYGRGYTYLLSRAGVTGAENRAALPLNHLVAKLKEYNAAPPLQGFGISAPDQVKAAIDAGAAGAISGSAIVKIIEQHINEPEKMLAALKVFVQPMKAATRS [E49V], for which the “ddG of mutation (higher = less stable)” value was -0.9 kcal/mol (pH 5.5, acetate 0.05 M); -3.2 kcal/mol under setting [1]; -4.5 kcal/mol (pH 9, Tris-HCl 0.025 M). Further, the unfolding free energy by setting is: (pH 5.5, acetate 0.05 M) 6.1 kcal/mol; under setting [1], 12 kcal/mol; (pH 9, Tris-HCl 0.025 M) 9.4 kcal/mol.
Turning to MERYESLFAQLKERKEGAFVPFVTLGDPGIEQSLKIIDTLIEAGADALMLGIPFSDPLADGPTIQNATLRAFAAGVTPAQCFEMLALIRQKHPTIPIGLLMYANLVFNKGIDEFYAQCEKVGVDSVLVADVPVEESAPFRQAALRHNVAPIFICPPNADDDLLRQIASYGRGYTYLLSRAGVTGAENRAALPLNHLVAKLKEYNAAPPLQGFGISAPDQVKAAIDAGAAGAISGSAIVKIIEQHINEPEKMLAALKVFVQPMKAATRS [E49M], the “ddG of mutation (higher = less stable)” value is -0.7 kcal/mol (pH 5.5, acetate 0.05 M); -4.5 kcal/mol under setting [1]; -3.5 kcal/mol (pH 9, Tris-HCl 0.025 M). Further, the unfolding free energy by setting is: (pH 5.5, acetate 0.05 M) 5.9 kcal/mol; under setting [1], 13.3 kcal/mol; (pH 9, Tris-HCl 0.025 M) 8.4 kcal/mol.
On to MERYESLFAQLKERKEGAFVPFVTLGDPGIEQSLKIIDTLIEAGADALSLGIPFSDPLADGPTIQNATLRAFAAGVTPAQCFEMLALIRQKHPTIPIGLLMYANLVFNKGIDEFYAQCEKVGVDSVLVADVPVEESAPFRQAALRHNVAPIFICPPNADDDLLRQIASYGRGYTYLLSRAGVTGAENRAALPLNHLVAKLKEYNAAPPLQGFGISAPDQVKAAIDAGAAGAISGSAIVKIIEQHINEPEKMLAALKVFVQPMKAATRS [E49S], for which the “ddG of mutation (higher = less stable)” value (pH 5.5, acetate 0.05 M) is 1.3 kcal/mol; the “ddG of mutation (higher = less stable)” value under setting [1] was determined as 1.4 kcal/mol; the “ddG of mutation (higher = less stable)” value (pH 9, Tris-HCl 0.025 M) was -3.1 kcal/mol. In addition, the unfolding free energy by setting is: (pH 5.5, acetate 0.05 M) 3.9 kcal/mol; under setting [1], 7.4 kcal/mol; (pH 9, Tris-HCl 0.025 M) 8 kcal/mol.
Regarding MERYESLFAQLKERKEGAFVPFVTLGDPGIEQSLKIIDTLIEAGADALYLGIPFSDPLADGPTIQNATLRAFAAGVTPAQCFEMLALIRQKHPTIPIGLLMYANLVFNKGIDEFYAQCEKVGVDSVLVADVPVEESAPFRQAALRHNVAPIFICPPNADDDLLRQIASYGRGYTYLLSRAGVTGAENRAALPLNHLVAKLKEYNAAPPLQGFGISAPDQVKAAIDAGAAGAISGSAIVKIIEQHINEPEKMLAALKVFVQPMKAATRS [E49Y], the “ddG of mutation (higher = less stable)” value (pH 5.5, acetate 0.05 M) amounted to 0.4 kcal/mol; the “ddG of mutation (higher = less stable)” value under setting [1] turned out to be 0 kcal/mol; the “ddG of mutation (higher = less stable)” value (pH 9, Tris-HCl 0.025 M) is -1.9 kcal/mol. Moreover, the unfolding free energy (pH 5.5, acetate 0.05 M) amounted to 4.8 kcal/mol; the unfolding free energy under setting [1] is 8.8 kcal/mol; the unfolding free energy (pH 9, Tris-HCl 0.025 M) amounted to 6.8 kcal/mol.
On to MERYESLFAQLKERKEGAFVPFVTLGDPGIEQSLKIIDTLIEAGADALQLGIPFSDPLADGPTIQNATLRAFAAGVTPAQCFEMLALIRQKHPTIPIGLLMYANLVFNKGIDEFYAQCEKVGVDSVLVADVPVEESAPFRQAALRHNVAPIFICPPNADDDLLRQIASYGRGYTYLLSRAGVTGAENRAALPLNHLVAKLKEYNAAPPLQGFGISAPDQVKAAIDAGAAGAISGSAIVKIIEQHINEPEKMLAALKVFVQPMKAATRS [E49Q], for which the “ddG of mutation (higher = less stable)” value (pH 5.5, acetate 0.05 M) amounted to 2.4 kcal/mol; the “ddG of mutation (higher = less stable)” value under setting [1] worked out at 2.5 kcal/mol; the “ddG of mutation (higher = less stable)” value (pH 9, Tris-HCl 0.025 M) is -3.6 kcal/mol. The unfolding free energy stood at 2.8 kcal/mol (pH 5.5, acetate 0.05 M); 6.3 kcal/mol under setting [1]; 8.5 kcal/mol (pH 9, Tris-HCl 0.025 M).
